Source: patent US11155602B2, “Polypeptides targeting HIV fusion” (priority 2015, dated 2021)
Numbering of substitutions follows the chain as printed.

B1: 116 (protein)
chain: MASTSGVSDVPRDLEVVAATPTSLLISWDAPAVTVEQYYIAYYVEGEPSSYQYFRVPGSKSTATISGLKPGVLYHIYVNAVTGSGLRPEFSLPIRIKYRTEGSGSHHHHHH
modifications: Adnectin
B2: 119 (protein)
chain: MGVSDVPRDLEVVAATPTSLLISWDAPAVTVGWYHIGYNVEGEPASYQYFRVPGSKSTATISGLKPGVEYMIFVNAVTGSGAREEFSLPISINYRTEGSGSHHHHHH
modifications: Adnectin
B3: 149 (protein)
chain: MGHHHHHHGGSVSDVPRDLEVVAATPTSLLISWEYKVHPYRYYRITYGETGGNSPVQEFTVPSVLSTATISGLKPGVDYTITVYAVTYGKDSAPISINYRTEID
modifications: Adnectin
B4: 175 (protein)
chain: B3 chain with P39Y, Y40D, K90V, D91Q, A93T
modifications: Adnectin
B5: 159 (protein)
chain: B3 chain with K90D, N98P, E102P, I103G, D104G
modifications: Adnectin
B6: 117 (protein)
chain: B3 chain with K90D
modifications: Adnectin
B7: 167 (protein)
chain: B3 chain with K36R, H38N, K90V, D91Q, A93P
modifications: Adnectin
B8: 172 (protein)
chain: B3 chain with H38D, K90I, A93S
modifications: Adnectin
B9: 164 (protein)
chain: B3 chain with E34K, K36Q, P39A, K90V, D91Y
modifications: Adnectin
B10: 169 (protein)
chain: B3 chain with K36N, H38N, Y88R, K90V
modifications: Adnectin
B11: 161 (protein)
chain: B3 chain with T67S, T69E, K90D
modifications: Adnectin
B12: 171 (protein)
chain: B3 chain with E34K, K36Q, P39A, K90I, D91I, A93E
modifications: Adnectin
B13: 173 (protein)
chain: B3 chain with S11A, H38N, Y40W, K90V, D91H, A93S
modifications: Adnectin
B14: 170 (protein)
chain: B3 chain with H38S, Y88F, K90I, D91R, A93S
modifications: Adnectin
B15: 166 (protein)
chain: B3 chain with E34K, K36N, V37L, K90I, D91I, A93E
modifications: Adnectin
B16: 165 (protein)
chain: B3 chain with H38N, K90V, D91H, A93S
modifications: Adnectin
B17: 174 (protein)
chain: B3 chain with K36N, H38N, P39A, K90I, D91I, A93E
modifications: Adnectin
B18: 176 (protein)
chain: B3 chain with P39H, Y40D, K90I, D91E, A93S
modifications: Adnectin
B19: 177 (protein)
chain: B3 chain with K90D, N98P, E102P, I103G, D104G
modifications: Adnectin
B20: 162 (protein)
chain: B3 chain with T67S, T69Q, K90D
modifications: Adnectin
B21: 153 (protein)
chain: B3 chain with T69Q, K90D
modifications: Adnectin
B22: 163 (protein)
chain: B3 chain with D18Y, E34Q, Y42W, K90V, D91N, A93I
modifications: Adnectin
B23: 168 (protein)
chain: B3 chain with H38N, P39A, K90V, D91L, A93P
modifications: Adnectin
B24: 140 (protein)
chain: MGVSDVPRDLEVVAATPTSLLISWDLLEDMSRYYRITYGETGGNSPVQEFTVPTDAYTATISGLKPGVDYTITVYAVTQDSHVIELSYPISINYRTEIDKPSQHHHHHH
modifications: Adnectin
B25: 141 (protein)
chain: MGVSDVPRDLEVVAATPTSLLISWQYKVHPYRYYRITYGETGGNSPVQEFTVPSVLSTATISGLKPGVDYTITVYAVTYGIQSPPISINYRTEIDKPSQHHHHHH
modifications: Adnectin
B26: 158 (protein)
chain: B25 chain with Q25E, P30Y, Y31D
modifications: Adnectin
B27: 145 (protein)
chain: B25 chain with Q25E, I81V, Q82N, P84L
modifications: Adnectin
B28: 118 (protein)
chain: B25 chain with Q25K, I81V, Q82N, P84L
modifications: Adnectin
B29: 144 (protein)
chain: B25 chain with I81V, Q82E, P84S
modifications: Adnectin
B30: 160 (protein)
chain: B25 chain with Q25E, H29D, I81V, Q82E, P84S
modifications: Adnectin
B31: 150 (protein)
chain: B25 chain with Q25E, K27N, H29N, I81V, Q82E, P84S
modifications: Adnectin
B32: 148 (protein)
chain: B25 chain with Q25E, K27N, H29N, Q82D
modifications: Adnectin
B33: 143 (protein)
chain: B25 chain with Q25E, K27N, H29N, Q82E, P84S
modifications: Adnectin
B34: 142 (protein)
chain: B25 chain with Q25R, K27R, Y79D, I81V, P84S
modifications: Adnectin
B35: 146 (protein)
chain: B25 chain with Q25E, Q82D
modifications: Adnectin
B36: 151 (protein)
chain: B25 chain with Q25E, Q82D, P84S
modifications: Adnectin
B37: 157 (protein)
chain: B25 chain with I81V, Q82N, P84I
modifications: Adnectin
B38: 155 (protein)
chain: B25 chain with Y79H, I81V, Q82H, P84A
modifications: Adnectin
B39: 154 (protein)
chain: B25 chain with Q25E, K27N, H29N, I81V, Q82N, P84L
modifications: Adnectin
B40: 147 (protein)
chain: B25 chain with Q25E, I81V, Q82D, P84D
modifications: Adnectin
B41: 156 (protein)
chain: B25 chain with Q25E, H29N, Y31W, Q82E, P84S
modifications: Adnectin
B42: 152 (protein)
chain: B25 chain with Q25E, K27N, H29N, I81V, P84D
modifications: Adnectin

tested on: NL-Rluc virus; experiment: Combinectin potency assay: antiviral EC50, NL-Rluc virus in MT-2 cells, luciferase readout; assay type: cell-based, HIV-1; settings: Anti-N17 Adnectin, Table 3
Protocol: MT-2 cells, HEK 293T cells and the proviral DNA clone of […] were obtained from the NIH AIDS Research and Reference Reagent Program. MT-2 cells were propagated in RPMI 1640 medium supplemented with 10% heat-inactivated fetal bovine serum (FBS), 10 mM HEPES buffer pH 7.55, and 2 mM L-glutamine. HEK 293T cells were propagated in DMEM media supplemented with 10% heat-inactivated FBS, 10 mM HEPES buffer pH 7.55 and 2 mM L-glutamine. Recombinant NL-Rluc virus, in which a section of the nef gene from the proviral clone of NL4-3 was replaced with the Renilla luciferase gene, was constructed at Bristol-Myers Squibb. The replication-competent virus was harvested 3 days after transfection of HEK 293T cells with the modified pNL-Rluc proviral clone. Transfections were performed using Lipofectamine Plus (Invitrogen, Carlsbad, Calif.), according to manufacturer's instruction. Virus was titered in MT-2 cells using luciferase enzyme activity as a biomarker. The NL-Rluc virus used to infect MT-2 cells a multiplicity of 0.01 for 1 hour before adding to the peptides in 96-well plates. Peptides were serially diluted three-fold and 11 concentrations were plated in triplicate. After 4-5 days of incubation, cells were processed and quantitated for virus growth by the amount of expressed luciferase. Luciferase was quantitated using the Dual Luciferase kit from Promega (Madison, Wis.), with modifications to the manufacturer's protocol. The diluted Passive Lysis solution was pre-mixed with the re-suspended Luciferase Assay Reagent and then re-suspended in STOP & GLO® Substrate (2:1:1 ratio). A total of […] of the mixture was added to each aspirated well on assay plates and luciferase activity was measured immediately on a Wallac TriLux (Perkin-Elmer, Waltham, Mass.). The 50% effective concentration (EC50) was calculated by comparing the amount of luciferase produced in the presence of inhibitory peptide compared to wells where no peptide was added.

Row | Molecule | EC50
1 | B1 | 50 nM
2 | B2 | > 1000 nM
3 | B3 | 3 nM
4 | B4 | 5 nM
5 | B5 | 23 nM
6 | B6 | 42 nM
7 | B7 | 42 nM
8 | B8 | 5 nM
9 | B9 | 35 nM
10 | B10 | 5 nM
11 | B11 | 13 nM
12 | B12 | 35 nM
13 | B13 | 5 nM
14 | B14 | 5 nM
15 | B15 | 50 nM
16 | B16 | 42 nM
17 | B17 | 5 nM
18 | B18 | > 1000 nM
19 | B19 | 252 nM
20 | B20 | 35 nM
21 | B21 | 8 nM

Row | Molecule | EC50
22 | B22 | 35 nM
23 | B23 | 42 nM
24 | B24 | 950 nM
25 | B25 | 3 nM
26 | B26 | 85 nM
27 | B27 | 11 nM
28 | B28 | 28 nM
29 | B29 | 20 nM
30 | B30 | 58 nM
31 | B31 | 18 nM
32 | B32 | 14 nM
33 | B33 | 20 nM
34 | B34 | 55 nM
35 | B35 | 11 nM
36 | B36 | 11 nM
37 | B37 | 43 nM
38 | B38 | 9 nM
39 | B39 | 8 nM
40 | B40 | 28 nM
41 | B41 | 43 nM
42 | B42 | 20 nM
